Reference: a protein production outcome set (Wang et al. 2014)

Test: label from the status in PepcDB records

Sequence | protein production
MIPLMHDFEGETVLVVGGGSVGARKARTFATEASVVVLSPEFGDRTFADAEKVRAAPTPEDATDWVERTDPALVVAATDDSDLNGAFSTAAAEHGALVNRTDDHGDQSFGNIVVPATVRDDPVTLAIATGGRAPALSKHLRERFEDEFGNAGLMADLVGDLREDLRDRGVPPAKRRDAVRFVVRSREVWKALDSGRSKGEQVARDVIGELPGDQT | not failed
MIPLVSIIVPMYNVEPFIEECIDSLLRQTLSDIEIILVNDGTPDRSGEIAEDYAKRDARIRVIHQANGGLSSARNTGIKAARGTYIGFVDGDDYVSSAMFQRLTEEAEQNQLDIVGCGFYKQSSDRRTYVPPQLEANRVLTKPEMTEQLKHAHETRFIWYVWRYLYRRELFERANLLFDEDIRFAEDSPFNLSAFREAERVKMLDEGLYIYRENPNSLTEIPYKPAMDEHLQKQYQAKIAFYNHYGLAGACKEDLNVYICRHQLPMLLANACASPNSPKDIKKKIRQILSYDMVRQAVRHTPFQHEKLLRGERLVLALCKWRLTFLIKLFFEQRGTMKGSAKQALEHHHHHH | failed
MIPMEELKVKKITNGTVIDHIDAGKALMVFKVLNVPKETSVMIAINVPSKKKGKKDILKIEGIELKKEDVDKISLISPDVTINIIRNGKVVEKLKPQIPDEIEGTLKCTNPNCITNKEKVRGKFKIESKNPLKIRCYYCEKFLNEVIFE | not failed
MIPRVRAPELPQNYPWLNTEQPLSIKQLNGRVVILDFWTYCCINCLHVLPDLKYLEQKYKDSLTVIGVHSAKFDNEQETENIRQAILRYDIEHPVLVDKDFRVWQEYAVRAWPTLMVIDPKGYVIGYVSGEGNRDKLDQLITQVIQEHQGAINFQQLSLTLEKQRQPLITPLAFPGKVLATPSGLFVADSGHHRIVVSDFNGEILHLIGNGKSGLTDGNFQEAQFSAPQGMAFDMENQILYLADTENHALRRVDINQQTVETIAGTGEQSRNIQPHGGVGLETALNSPWDLVNIENSLYIAMAGVHQIWQMDLASGVIKTYAGTGVEACLDASLTESAFAQPSGITNNEQELYIADSEISSIRGVGLVEPQEVRTVCGSGGLFGFGDVDGQGEDVRLQHCLGVEYFQNYLWVADTYNHKIKSVSPHTGNCQTVLGDGLAGLQNGQGKNTRFFEPSGLSAIDSYLYISDTNNHVIRRVDLRTLEVTTMQFNGLCAPDVCIPNNFLEHHHHHH | failed
MIPVTSFRGKKVALFGLGGSGLVTARALVAGGAAVVAFDDNPDSVAKAQAEGIATADLHTIDWSSFSSFVLAPGVPLTHPKPHWSVDLAKAAGVEVIGDIELFIRERRVHAPDCPFIAITGTNGKSTTTALIAHILQSSGRDTQLGGNIGTAVLSLDPPKAQRFYVVECSSYQIDLAPTINPTAGILLNLTPDHLDRHGTMQHYADVKERLVAGSGTAIVGVDDSHSTLIADRIERAGVKVERISKRNVVSEGLYAEGSQILRAHGGTSSLLVDLDGIQTLRGSHNAQNAAAAIAACLAVGVSEEEIRAGLKSFPGLKHRMQPVGRRGNVTFVNDSKATNADAAAPALSSFDRIYWIAGGLPKAGGITSLSPLFPRIAKAYLIGEAAAEFAATLGEAVPYEISGTLDKAVQHAAADAEKDATAGNVVMLSPACASFDQYKNFEIRGDSFVAQVAALEGMTMLVHSGKGG | failed
MIPYVNEYDTPNCNTLAETAKKSIRTPESLGLDRCIQCGACTASCPAARFTDYSPRQIVKKVLENDRSVLESDMIWSCFYCYSCNMRCPRNNSPVTIVQVLRQMAINEGIGIGKLAYFLEIGECLAENGASKVPGAGVKNMERDLGERWIGIKRNLEPIRSELGLSPRDVRDTHGEVQAILESTGYFEREKWIKAGIQEKKLHGFLKADCSDEEKKNGDFCFESDREYTGQEAITV | failed
MIQEIASILVQPGREADFEAGVAQARPLFMRARGCHGVALHRSIEAPQRYTLVVDWETVDNHMVDFRQSADFQEWRKLVGECFAEPPQVHHEQKVL | not failed
